Assay results reported in patent US20110190477A1 (G2 INFLAMMATION, published 2011).
No end group written: not given here. *: point of attachment. Biotin = O=C1N[C@H]2[C@H](CS[C@H]2CCCCC(=O)*)N1

T1: human C5a receptor (human, UniProt P21730 1-350)
T1 chain: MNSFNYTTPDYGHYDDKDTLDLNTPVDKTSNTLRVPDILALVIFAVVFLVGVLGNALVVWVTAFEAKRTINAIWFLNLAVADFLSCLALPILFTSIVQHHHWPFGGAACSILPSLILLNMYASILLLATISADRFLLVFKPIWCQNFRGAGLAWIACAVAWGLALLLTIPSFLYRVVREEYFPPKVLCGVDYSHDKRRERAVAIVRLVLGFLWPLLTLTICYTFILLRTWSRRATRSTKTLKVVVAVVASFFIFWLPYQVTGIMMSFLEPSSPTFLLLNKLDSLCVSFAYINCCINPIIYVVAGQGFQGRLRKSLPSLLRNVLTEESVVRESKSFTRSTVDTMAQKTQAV

T2: peptide 1 (12 mer from the 2nd extracellular loop of human C5aR) (human, not fully specified)
T2 construct: worked out from 22 12 mers offset by one over 173-205; also called peptide no
T2 peptide: Biotin-SGSGLYRVVREEYFPP

T3: peptide 2 (12 mer from the 2nd extracellular loop of human C5aR) (human)
T3 construct: worked out from 22 12 mers offset by one over 173-205; also called peptide no
T3 peptide: Biotin-SGSGYRVVREEYFPPK

T4: peptide 3 (12 mer from the 2nd extracellular loop of human C5aR) (human)
T4 construct: worked out from 22 12 mers offset by one over 173-205; also called peptide no
T4 peptide: Biotin-SGSGRVVREEYFPPKV

T5: peptide 4 (12 mer from the 2nd extracellular loop of human C5aR) (human)
T5 construct: worked out from 22 12 mers offset by one over 173-205; also called peptide no
T5 peptide: Biotin-SGSGVVREEYFPPKVL

T6: peptide 5 (12 mer from the 2nd extracellular loop of human C5aR) (human)
T6 construct: worked out from 22 12 mers offset by one over 173-205; also called peptide no
T6 peptide: Biotin-SGSGVREEYFPPKVLC

T7: peptide 6 (12 mer from the 2nd extracellular loop of human C5aR) (human)
T7 construct: worked out from 22 12 mers offset by one over 173-205; also called peptide no
T7 peptide: Biotin-SGSGREEYFPPKVLCG

T8: peptide 7 (12 mer from the 2nd extracellular loop of human C5aR) (human)
T8 construct: worked out from 22 12 mers offset by one over 173-205; also called peptide no
T8 peptide: Biotin-SGSGEEYFPPKVLCGV

B1: mouse anti-C5aR monoclonal antibody 7F3 (antibody, V domains shown)
VH: QVQLQQSGPELVKPGASVKISCKASGYAFSNSWMNWVKQRPGKGLEWIGRIYPGDGDTKYNGKFKGKATLTADKSSSTAYMQLSSLTSEDSAVYFCARFLLISTVTAVDYWGQGTTLTVSS
VL: DVVMTQSPLSLPVSLGNQASISCRSSQSLVHSNGNTYLHWYLQKPGQSPKLLIYKVSNRFSGVPDRFSGSGSGTDFSLKISRVEAEDLGVYFCSQSTLVPLTFGAGTKLELK
notes: Mouse monoclonal from hybridoma ECACC 00110609; also called m7F3; mouse 7F3
B2: humanized anti-C5aR antibody hAb-J (antibody, human IgG4 S228P, kappa)
light: DVVMTQSPLSLPVTLGEPASISCRSSQSLVHSNGNTYLHWYLQKPGQSPQLLIYKVSNRFSGVPDRFSGSGSGTDFTLKISRVEAEDVGVYFCSQSTLVPLTFGQGTKLEIKTVAAPSVFIFPPSDEQLKSGTASVVCLLNNFYPREAKVQWKVDNALQSGNSQESVTEQDSKDSTYSLSSTLTLSKADYEKHKVYACEVTHQGLSSPVTKSFNRGEC
heavy: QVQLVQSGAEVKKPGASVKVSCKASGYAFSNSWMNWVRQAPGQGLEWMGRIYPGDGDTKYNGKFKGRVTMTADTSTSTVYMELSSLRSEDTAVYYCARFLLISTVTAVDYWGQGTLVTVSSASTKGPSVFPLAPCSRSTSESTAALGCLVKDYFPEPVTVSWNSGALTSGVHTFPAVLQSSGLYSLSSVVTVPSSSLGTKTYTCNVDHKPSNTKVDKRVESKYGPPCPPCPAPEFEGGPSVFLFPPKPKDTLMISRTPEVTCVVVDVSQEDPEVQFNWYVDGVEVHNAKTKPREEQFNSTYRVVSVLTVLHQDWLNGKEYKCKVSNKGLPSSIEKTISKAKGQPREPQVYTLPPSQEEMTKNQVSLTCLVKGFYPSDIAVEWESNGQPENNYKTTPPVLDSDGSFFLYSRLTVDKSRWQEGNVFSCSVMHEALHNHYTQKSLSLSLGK
notes: also called antibody J
B3: humanized anti-C5aR antibody hAb-Q (antibody, human IgG4 S228P, kappa)
light: DVVMTQSPLSLPVTLGEPASISCRSSQSLVHSNGNTYLHWYLQKPGQSPQLLIYKVSNRFSGVPDRFSGSGSGTDFTLKISRVEAEDVGVYFCSQSTLVPLTFGQGTKLEIKRTVAAPSVFIFPPSDEQLKSGTASVVCLLNNFYPREAKVQWKVDNALQSGNSQESVTEQDSKDSTYSLSSTLTLSKADYEKHKVYACEVTHQGLSSPVTKSFNRGEC
heavy: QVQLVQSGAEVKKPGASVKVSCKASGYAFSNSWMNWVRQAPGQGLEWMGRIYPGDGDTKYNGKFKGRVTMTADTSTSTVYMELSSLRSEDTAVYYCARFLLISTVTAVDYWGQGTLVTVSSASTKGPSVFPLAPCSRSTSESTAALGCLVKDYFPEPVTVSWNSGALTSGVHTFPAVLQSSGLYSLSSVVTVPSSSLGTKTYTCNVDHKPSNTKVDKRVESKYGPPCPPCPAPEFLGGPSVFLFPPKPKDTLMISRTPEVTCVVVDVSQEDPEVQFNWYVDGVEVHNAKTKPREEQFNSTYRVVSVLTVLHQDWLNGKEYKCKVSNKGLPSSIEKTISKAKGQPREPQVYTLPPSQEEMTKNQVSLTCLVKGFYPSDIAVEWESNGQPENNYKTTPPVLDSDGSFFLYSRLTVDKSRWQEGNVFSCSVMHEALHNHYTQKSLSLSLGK
notes: IgG4 with the Ser228Pro mutation; also called antibody Q; anti-C5aR ab

What was measured:
[1] = molecular target: T1, human C5a receptor; test: cell-based or functional assay
[2] = molecular target: T1, human C5a receptor; test: 125I-C5a displacement, human neutrophils
Procedure: The ability of humanized Abs to inhibit ¹²⁵I-labelled C5a binding to L1.2 cells transfected with hC5aR gene or human neutrophils was tested as described below. Recombinant human C5a was obtained from Sigma Chemical Co. (St. Louis, Mo.). ¹²⁵I-Bolton-Hunter-labelled complement C5a was purchased from NEN-Dupont (Boston, Mass.), with a specific activity of 2200 Ci/mM. Briefly, L1.2/hC5aR stable transfectants were grown for several days prior to an experiment then treated overnight with 5 mM butyric acid to stimulate hC5aR expression prior to the binding assay. Human neutrophils were purified from venous blood collected from healthy volunteers. Neutrophils were separated from other leukocytes by percoll density centrifugation followed by a red blood cell lysis step. Both cell types were washed once in PBS and resuspended in binding buffer (50 mM Hepes, pH 7.5, 1 mM CaCl₂, 5 mM MgCl₂, 0.5% BSA) at a concentration of 1×10⁷/ml. Aliquots of 40 μl (4×10⁵ cells) were dispensed into 96 well microtitre plates, followed by the addition of cold competitor (antibody or human C5a). Cells and cold competitor were incubated for 15 min at room temperature before-radiolabelled C5a was added to a final concentration of 0.4 nM. The final reaction volume was 120 μl. After 60 min incubation at room temperature, the cells were washed three times with 150 μl of binding buffer containing 0.15 M NaCl. Cell pellets were then counted on a TopCount Scintillation Counter (Packard). Samples were assayed in triplicate at each of 6-8 concentrations. Each antibody was tested in at least 3 separate assays. The number of counts in each sample was expressed as a percentage of the maximum ¹²⁵I-C5a binding observed in wells with no added cold competitor after subtraction of background.
Results of this analysis (the displacement curves) for each of the humanized antibodies compared to the mouse antibody 7F3 in human neutrophils and L1.2/hC5aR transfectants are given in FIGS. 11 and 12 respectively. […] These values were obtained using Graphpad Prism software fitting the data to the non-linear equation for one site competition.

[3] = molecular target: T2, peptide 1 (12 mer from the 2nd …); test: peptide ELISA, biotin peptide on streptavidin plate
Description: (§1) A set of 22 overlapping peptides (12 mers), each offset by 1 residue from the next, spanning the second extracellular loop (3rd extracellular domain) of human C5aR was synthesised (Mimotopes, Melbourne). Each peptide was made with a biotin group and 4-amino acid linker (SGSG) at its N-terminus. One peptide synthesised, no. 23, was a 33 mer, representing the full length of the 2nd extracellular loop of hC5aR (residues 173-205 from SEQ ID NO:37), also had biotin-SGSG at the N-terminus.
(§2) The experiment was conducted by binding the peptides to a 384-well streptavidin-coated plate then incubating the antibodies with the peptides and detecting bound antibody with an anti-mouse IgG conjugated to horse radish peroxidase (HRP) as follows. Each peptide was dissolved in 200 μl of 60% DMSO to a concentration of 10 mg/ml. Peptides were further diluted 1:1000 to a working strength of 10 μg/ml with PBS/Tween 20/azide solution (0.1% w/v sodium azide in PBS/0.05% Tween 20).
(§3) A 384 well streptavidin-coated plate (Nunc) was blocked with 20 μl of blocking buffer (1% w/v BSA in PBS) per well. The plate was washed 4 times with PBS/Tween20 buffer (0.1% v/v Tween 20 in PBS). 20 μl of diluted peptide solution was transferred into a well and the plate incubated for 1 hour at room temperature. After washing the plate 4 times (as above) 20 μl antibody (0.5, 1, 1.25, 2.5 or 5 μg/ml) was added to the well and the plate was incubated for 1 hour at 20° C. The plate was washed 4 times as above then 20 μlHRP-conjugated anti-mouse IgG (1:5000 dilution in PBS/Tween 20) was added to each well. After a 1 hour incubation at room temperature the plate was washed 3 times (as above) then twice with PBS to remove traces of Tween. The presence of peroxidase was detected by adding 20 μl of freshly prepared TMB Substrate reagent (BD Opt EIA) to each well and incubating at room temperature for 20 min. Finally the plate was read at 650 nm/450 nm.

[4] = molecular target: T3, peptide 2 (12 mer from the 2nd …); test: as above
Description: as §1, §2, §3

[5] = molecular target: T4, peptide 3 (12 mer from the 2nd …); test: as above
Description: as §1, §2, §3

[6] = molecular target: T5, peptide 4 (12 mer from the 2nd …); test: as above
Description: as §1, §2, §3

[7] = molecular target: T6, peptide 5 (12 mer from the 2nd …); test: as above
Description: as §1, §2, §3

[8] = molecular target: T7, peptide 6 (12 mer from the 2nd …); test: as above
Description: as §1, §2, §3

[9] = molecular target: T8, peptide 7 (12 mer from the 2nd …); test: as above
Description: as §1, §2, §3

Binder	IC50, C5a-induced migration of hC5aR/L1.2 cells [1]	antibody concentration that completely blocked migration of human neutrophils induced by 10 nM C5a [1]	antibody concentration that completely inhibited hC5aR/L1.2 transfectant migration [1]	blocking of human neutrophil migration towards C5a at 5 µg/ml antibody [1]	EC50 [2]	binding result [3]	binding result [4]	binding result [5]	binding result [6]	binding result [7]	binding result [8]	binding result [9]	EC50 for inhibition of C5a-induced human neutrophil migration [1]	IC50, prevention of C5a-induced CD11b up-regulation on neutrophils in whole human blood (100 nM C5a) [1]	IC50, prevention of C5a-induced loss of CD62L on neutrophils in whole human blood (100 nM C5a) [1]
B1	0.5 µg/mL	10 µg/mL	5 µg/mL	97%	0.54 nM	binds	binds	binds	binds	binds	binds	binds	–	–	–
B2	0.6 µg/mL	–	5 µg/mL	82%	4.11 nM	–	–	–	–	–	–	–	–	–	–
B3	0.7 µg/mL	–	5 µg/mL	–	3.5 nM	binds	binds	binds	binds	binds	binds	binds	0.03 µg/mL	~10.7 µg/mL	~5.4 µg/mL
